The target of one assay is soluble human insulin receptor (IR-Fc) (human) (UniProt P06213). Nature of the assay: phage ELISA; non-fat milk blank 0.09. Background: In an ELISA, binding on a coated surface is turned into a signal by an enzyme label.
Regarding SMFVAGSDRWPGYGVLADWL [F2 phage], the absorbance (405 nm) worked out at 1.43.

The next assay has as its target soluble IGF-1 receptor (human) (UniProt P08069). The assay is described as follows: phage ELISA; non-fat milk blank 0.09.
The molecule SMFVAGSDRWPGYGVLADWL [F2 phage] gave an absorbance (405 nm) of 2.08.

A further assay deals with soluble human insulin receptor (IR-Fc) (human) (UniProt P06213). The assay is described as follows: phage ELISA.
Take LKDGFYDYFWQRLHLGS [NNRPγ-4-B11-IR]: the ratio over background came to 1.2.
For the molecule GIISQSCPESFYDWFAGQVSDPWWCW [H2CA-4-G9-IGF], the ratio over background worked out at 0.6.
As for VRGFQGGTVWPGYEWLRNAA [R20β-4-E8-IR], the ratio over background was 3.6.
In the case of GVRAMSFYDALVSVLGLGPSG [20E2B-1-A6-IGFR], the ratio over background is 1.1.
TSEVQRRSQDNFYDWFVAQVA [A6S-3-E2-IR]: the ratio over background amounted to 9.8.
On to LGYQEPFQQNFYDWFVRQVSGAENAG [H2CA-3-E8-IGFR], for which the ratio over background was 2.2.
Consider QSPVGSSHEDFYDWFFRQVAQSGAHQ [H2CA-3-D6-IGFR], for which the ratio over background was 2.2.
Regarding HLADGQFHEKFYDWFERQISSRCNDC [H2CA-3-E11-IGFR], the ratio over background came to 1.
As for RCGRELYHSTFYDWFDRQVAGRTCPS [H2CA-1-A7-IGFR], the ratio over background is 0.6.
Same read-out and setting: in the case of RGCNDDGGKGWSDDPFYHKLSELICGG [B6Hα-1-A2-IR] it was 1; in that of NYRRQVFNGNFYDWFDRQVFSLVTPG [H2CA-3-D8-IGFR], 1.8.
As for TFYSCLASLLTGTPQPNRGPWERCR [20C-3-G3-IGFR], the ratio over background came to 1.2.
On to CCTTEMWMDARDDPFYHKLSELVTGG [B6Hα-1-B5-IR], for which the ratio over background was 1.
With RLFYCGIQALGANLGYSGCV [R20 -4-20A12-IR], the ratio over background came out at 2.4.
For the molecule CCLLCRFQQNFYDWFVCQGISRLRPL [H2CA-2-B4-IGFR], the ratio over background stood at 1.1.
Turning to FYDAIDQLVRGSARAGGTRD [R20α-3-20E2-IR], the ratio over background worked out at 3.1.
With QGGSASFYDAIDRLLRMRIGG [20E2A-4-F11-IGFR], the ratio over background stood at 1.3.

In another assay the target is soluble IGF-1 receptor (human) (UniProt P08069). The assay is described as follows: phage ELISA.
On to LKDGFYDYFWQRLHLGS [NNRPγ-4-B11-IR], for which the ratio over background stood at 18.7.
GIISQSCPESFYDWFAGQVSDPWWCW [H2CA-4-G9-IGF]: the ratio over background was determined as 9.5.
Turning to VRGFQGGTVWPGYEWLRNAA [R20β-4-E8-IR], the ratio over background was 34.9.
With GVRAMSFYDALVSVLGLGPSG [20E2B-1-A6-IGFR], the ratio over background came out at 18.1.
On the same count and under the same terms, next, TSEVQRRSQDNFYDWFVAQVA [A6S-3-E2-IR]: 24.7.
Consider LGYQEPFQQNFYDWFVRQVSGAENAG [H2CA-3-E8-IGFR], for which the ratio over background was 6.3.
As to QSPVGSSHEDFYDWFFRQVAQSGAHQ [H2CA-3-D6-IGFR], the ratio over background came to 9.
As to HLADGQFHEKFYDWFERQISSRCNDC [H2CA-3-E11-IGFR], the ratio over background was found to be 2.2.
Regarding RCGRELYHSTFYDWFDRQVAGRTCPS [H2CA-1-A7-IGFR], the ratio over background was determined as 2.2.
As to RGCNDDGGKGWSDDPFYHKLSELICGG [B6Hα-1-A2-IR], the ratio over background was found to be 14.6.
On the same count and under the same terms, next, NYRRQVFNGNFYDWFDRQVFSLVTPG [H2CA-3-D8-IGFR]: 7.2; TFYSCLASLLTGTPQPNRGPWERCR [20C-3-G3-IGFR]: 32.3; CCTTEMWMDARDDPFYHKLSELVTGG [B6Hα-1-B5-IR]: 20.5.
Take RLFYCGIQALGANLGYSGCV [R20 -4-20A12-IR]: the ratio over background stood at 39.9.
CCLLCRFQQNFYDWFVCQGISRLRPL [H2CA-2-B4-IGFR]: the ratio over background was 4.1.
On the same count and under the same terms, next, FYDAIDQLVRGSARAGGTRD [R20α-3-20E2-IR]: 39.9.
With QGGSASFYDAIDRLLRMRIGG [20E2A-4-F11-IGFR], the ratio over background was 18.8.

The target in the next assay is soluble human insulin receptor (IR-Fc) (human) (UniProt P06213). Nature of the assay: phage ELISA; non-fat milk blank 0.10.
With VRGFQGGTVWPGYEWLRNAA [R20β-4-E8-IR], the absorbance (405 nm) is 1.34.

Another assay concerns the target soluble IGF-1 receptor (human) (UniProt P08069). The assay is described as follows: phage ELISA; non-fat milk blank 0.10.
For the molecule VRGFQGGTVWPGYEWLRNAA [R20β-4-E8-IR], the absorbance (405 nm) was determined as 2.

In the next assay the target is soluble human insulin receptor (IR-Fc) (human) (UniProt P06213). The assay is described as follows: phage ELISA; non-fat milk blank 0.11.
As to FYDAIDQLVRGSARAGGTRD [R20α-3-20E2-IR], the absorbance (405 nm) was 1.01.

The target in the next assay is soluble IGF-1 receptor (human) (UniProt P08069). The assay is described as follows: phage ELISA; non-fat milk blank 0.11.
For FYDAIDQLVRGSARAGGTRD [R20α-3-20E2-IR], the absorbance (405 nm) was determined as 2.15.

Values taken from patent WO2001072771A2.
